Results from patent publication US20260265780A1.

Target: CD8 (protein not named in Table 16)

B1: CD8 binder 97 (VHH) (VHH)
VHH: QVQLVESGGGLVQAGGSLRLSCAASGRTFSGYVMGWFRQAPGKQRKFVAAISRGGLSTSYADSVKGRFTISRDNAKNTVFLQMNTLKPEDTAVYYCAADRSDLYEITAASNIDSWGQGTLVTVSS
Highest Response (nm): 0.465 nm | Kd: 5.3 nM | koff: 0.000272 s⁻¹ | kon: 51400 M⁻¹ s⁻¹
